Patent US6469155 (UNIVERSITA DEGLI STUDI DI BOLOGNA, dated 2002)

B2: HSV-1 glycoprotein D purified from HSV-1-infected BHK cells (ligand)
chain: KYALVDASLKMADPNRFRGKDLPVLDQLTDPPGVRRVYHIQAGLPDPFQPPSLPITVYYAVLERACRSVLLNAPSEAPQIVRGASEDVRKQPYNLTIAWFRMGGNCAIPITVMEYTECSYNKSLGACPIRTQPRWNYYDSFSAVSEDNLGFLMHAPAFETAGTYLRLVKINDWTEITQFILEHRAKGSCKYALPLRIPPSACLSPQAYQQGVTVDSIGMLPRFIPENQRTVAVYSLKIAGWHGPKAPYTSTLLPPELSETPNATQPELAPEDPEDSALLEDPVGTVAPQIPPNWHIPSIQDAATPYHPPATPNNMGLIAGAVGGSLLAALVICGIVYWMRRHTQKAPKRIRLPHIREDDQPSSHQPLFY
notes: also called gD; HSV gD

Legend:
[1] = biological target: B2; test: ELISA, gD immobilized, detection with anti-human IgG-peroxidase
[2] = biological target: T1, BSA (UniProt P02769 25-607); test: ELISA on immobilized gD
T1 construct: Unrelated control molecule
T1 sequence (P02769 25-607 limits assumed): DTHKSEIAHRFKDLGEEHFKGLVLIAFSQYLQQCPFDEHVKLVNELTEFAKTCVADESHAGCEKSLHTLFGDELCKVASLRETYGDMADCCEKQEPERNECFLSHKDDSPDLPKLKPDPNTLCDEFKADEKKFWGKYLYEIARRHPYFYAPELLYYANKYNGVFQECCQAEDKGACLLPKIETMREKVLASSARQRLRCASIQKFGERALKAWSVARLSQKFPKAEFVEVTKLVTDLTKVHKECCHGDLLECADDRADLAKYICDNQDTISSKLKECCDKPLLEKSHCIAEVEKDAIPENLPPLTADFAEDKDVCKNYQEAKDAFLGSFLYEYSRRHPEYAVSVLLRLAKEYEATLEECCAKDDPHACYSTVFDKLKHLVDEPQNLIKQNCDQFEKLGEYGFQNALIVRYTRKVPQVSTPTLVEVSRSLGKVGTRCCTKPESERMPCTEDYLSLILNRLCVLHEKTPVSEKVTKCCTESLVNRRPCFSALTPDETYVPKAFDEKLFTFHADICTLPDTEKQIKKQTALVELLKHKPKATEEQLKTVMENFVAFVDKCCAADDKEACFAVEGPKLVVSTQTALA

B1: sV(HIgR)-Fc (Fc fusion)
chain: QVVQVNDSMYGFIGTDVVLHCSFANPLPSVKITQVTWQKSTNGSKQNVAIYNPSMGVSVLAPYRERVEFLRPSFTDGTIRLSRLELEDEGVYICGFATFPTGNRESQLNLTVMA
notes: Made in COS1 cells and purified on protein A; also called V1-Fc; soluble V domain of HIgR/PRR1; not shown: IgG Fc (Fc portion of human IgG1) from the Cos Fc Link (CFL) vector
reduction in the level of saturable binding relative to sVCC(HIgR)-Fc [1]: ~30%

B2
binding result [2]: no binding
